From paper PMC10786891, “Massively parallel profiling of RNA-targeting CRISPR-Cas13d” come the findings set out here.

To fix the notation:
T1: EsCas13d, nuclease-dead (Eubacterium siraeum, UniProt B0MS50, R295A;H300A;R849A;H854A)
T1 sequence: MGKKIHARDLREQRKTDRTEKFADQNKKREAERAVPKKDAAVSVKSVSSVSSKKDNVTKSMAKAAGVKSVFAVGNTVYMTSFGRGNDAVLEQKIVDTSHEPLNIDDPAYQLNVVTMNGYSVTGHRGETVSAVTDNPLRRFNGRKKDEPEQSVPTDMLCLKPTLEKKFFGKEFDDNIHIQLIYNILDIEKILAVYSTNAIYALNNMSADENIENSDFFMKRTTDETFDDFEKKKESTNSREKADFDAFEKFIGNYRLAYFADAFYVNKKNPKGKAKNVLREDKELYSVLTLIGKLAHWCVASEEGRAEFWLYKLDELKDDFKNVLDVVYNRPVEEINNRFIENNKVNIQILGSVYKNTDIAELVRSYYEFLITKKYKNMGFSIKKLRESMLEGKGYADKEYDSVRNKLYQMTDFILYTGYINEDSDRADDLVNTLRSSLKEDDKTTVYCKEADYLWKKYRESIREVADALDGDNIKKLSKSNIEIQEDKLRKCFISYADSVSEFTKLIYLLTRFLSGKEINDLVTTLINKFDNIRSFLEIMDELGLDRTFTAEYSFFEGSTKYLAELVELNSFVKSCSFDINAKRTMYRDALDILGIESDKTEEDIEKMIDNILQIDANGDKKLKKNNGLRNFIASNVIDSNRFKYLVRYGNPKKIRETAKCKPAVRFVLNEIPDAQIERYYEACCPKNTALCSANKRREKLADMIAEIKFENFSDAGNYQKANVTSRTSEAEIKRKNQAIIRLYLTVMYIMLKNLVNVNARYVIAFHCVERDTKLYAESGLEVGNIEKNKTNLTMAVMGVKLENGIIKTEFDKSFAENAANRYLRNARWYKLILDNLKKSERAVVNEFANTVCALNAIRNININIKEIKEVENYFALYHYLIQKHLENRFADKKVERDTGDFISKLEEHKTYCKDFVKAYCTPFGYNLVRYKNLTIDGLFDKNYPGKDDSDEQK

B1: target 1 MT 5'PFS GGC 3'PFS CAC (mixed)
RNA 1: CACCCGUGCAAAAAUGCAGGGGUCUAAAACUGAGCGGAUAACCUCUCUAUGG
RNA 2: GGGAAUGGAUCCACAUCUACGAAUUCGGCCCAUAGAGAGGUUAUCCGCUCACACAGAUCGGAAGAGCACACGU
B2: target 1 MT 5'PFS CCU 3'PFS ACC (mixed)
RNA 1: CACCCGUGCAAAAAUGCAGGGGUCUAAAACUGAGCGGAUAACCUCUCUAUGG
RNA 2: GGGAAUGGAUCCACAUCUACGAAUUCCCUCCAUAGAGAGGUUAUCCGCUCAACCAGAUCGGAAGAGCACACGU
B3: target 1 MT 5'PFS AGC 3'PFS AGG (mixed)
RNA 1: CACCCGUGCAAAAAUGCAGGGGUCUAAAACUGAGCGGAUAACCUCUCUAUGG
RNA 2: GGGAAUGGAUCCACAUCUACGAAUUCAGCCCAUAGAGAGGUUAUCCGCUCAAGGAGAUCGGAAGAGCACACGU
B4: target 1 MT 5'PFS GGC 3'PFS AUA (mixed)
RNA 1: CACCCGUGCAAAAAUGCAGGGGUCUAAAACUGAGCGGAUAACCUCUCUAUGG
RNA 2: GGGAAUGGAUCCACAUCUACGAAUUCGGCCCAUAGAGAGGUUAUCCGCUCAAUAAGAUCGGAAGAGCACACGU
B5: target 1 MT 5'PFS GCG 3'PFS AGU (mixed)
RNA 1: CACCCGUGCAAAAAUGCAGGGGUCUAAAACUGAGCGGAUAACCUCUCUAUGG
RNA 2: GGGAAUGGAUCCACAUCUACGAAUUCGCGCCAUAGAGAGGUUAUCCGCUCAAGUAGAUCGGAAGAGCACACGU
B6: target 1 MT 5'PFS GUG 3'PFS UGG (mixed)
RNA 1: CACCCGUGCAAAAAUGCAGGGGUCUAAAACUGAGCGGAUAACCUCUCUAUGG
RNA 2: GGGAAUGGAUCCACAUCUACGAAUUCGUGCCAUAGAGAGGUUAUCCGCUCAUGGAGAUCGGAAGAGCACACGU
B7: target 1 MT 5'PFS GAG 3'PFS AUA (mixed)
RNA 1: CACCCGUGCAAAAAUGCAGGGGUCUAAAACUGAGCGGAUAACCUCUCUAUGG
RNA 2: GGGAAUGGAUCCACAUCUACGAAUUCGAGCCAUAGAGAGGUUAUCCGCUCAAUAAGAUCGGAAGAGCACACGU
B8: target 1 MT 5'PFS GUC 3'PFS CCG (mixed)
RNA 1: CACCCGUGCAAAAAUGCAGGGGUCUAAAACUGAGCGGAUAACCUCUCUAUGG
RNA 2: GGGAAUGGAUCCACAUCUACGAAUUCGUCCCAUAGAGAGGUUAUCCGCUCACCGAGAUCGGAAGAGCACACGU
B9: target 1 MT 5'PFS GUG 3'PFS UGA (mixed)
RNA 1: CACCCGUGCAAAAAUGCAGGGGUCUAAAACUGAGCGGAUAACCUCUCUAUGG
RNA 2: GGGAAUGGAUCCACAUCUACGAAUUCGUGCCAUAGAGAGGUUAUCCGCUCAUGAAGAUCGGAAGAGCACACGU
B10: target 1 MT 5'PFS GUG 3'PFS UGC (mixed)
RNA 1: CACCCGUGCAAAAAUGCAGGGGUCUAAAACUGAGCGGAUAACCUCUCUAUGG
RNA 2: GGGAAUGGAUCCACAUCUACGAAUUCGUGCCAUAGAGAGGUUAUCCGCUCAUGCAGAUCGGAAGAGCACACGU
B11: target 1 MT 5'PFS GCG 3'PFS AGC (mixed)
RNA 1: CACCCGUGCAAAAAUGCAGGGGUCUAAAACUGAGCGGAUAACCUCUCUAUGG
RNA 2: GGGAAUGGAUCCACAUCUACGAAUUCGCGCCAUAGAGAGGUUAUCCGCUCAAGCAGAUCGGAAGAGCACACGU
B12: target 1 MT 5'PFS GAC 3'PFS CCU (mixed)
RNA 1: CACCCGUGCAAAAAUGCAGGGGUCUAAAACUGAGCGGAUAACCUCUCUAUGG
RNA 2: GGGAAUGGAUCCACAUCUACGAAUUCGACCCAUAGAGAGGUUAUCCGCUCACCUAGAUCGGAAGAGCACACGU
B13: target 1 MT 5'PFS AUG 3'PFS CAC (mixed)
RNA 1: CACCCGUGCAAAAAUGCAGGGGUCUAAAACUGAGCGGAUAACCUCUCUAUGG
RNA 2: GGGAAUGGAUCCACAUCUACGAAUUCAUGCCAUAGAGAGGUUAUCCGCUCACACAGAUCGGAAGAGCACACGU
B14: target 1 MT 5'PFS GGC 3'PFS AAG (mixed)
RNA 1: CACCCGUGCAAAAAUGCAGGGGUCUAAAACUGAGCGGAUAACCUCUCUAUGG
RNA 2: GGGAAUGGAUCCACAUCUACGAAUUCGGCCCAUAGAGAGGUUAUCCGCUCAAAGAGAUCGGAAGAGCACACGU
B15: target 1 insG 3' of 9,insU 3' of 1 (mixed)
RNA 1: CACCCGUGCAAAAAUGCAGGGGUCUAAAACUGAGCGGAUAACCUCUCUAUGG
RNA 2: GGGAAUGGAUCCACAUCUACGAAUUCGUACCAUAGAGAGGUUAGUCCGCUCAUCCGAGAUCGGAAGAGCACACGU
B16: target 1 MT 5'PFS GUG 3'PFS UGU (mixed)
RNA 1: CACCCGUGCAAAAAUGCAGGGGUCUAAAACUGAGCGGAUAACCUCUCUAUGG
RNA 2: GGGAAUGGAUCCACAUCUACGAAUUCGUGCCAUAGAGAGGUUAUCCGCUCAUGUAGAUCGGAAGAGCACACGU
B17: target 1 MT 5'PFS GAG 3'PFS AUU (mixed)
RNA 1: CACCCGUGCAAAAAUGCAGGGGUCUAAAACUGAGCGGAUAACCUCUCUAUGG
RNA 2: GGGAAUGGAUCCACAUCUACGAAUUCGAGCCAUAGAGAGGUUAUCCGCUCAAUUAGAUCGGAAGAGCACACGU
B18: target 1 MT 5'PFS GAG 3'PFS AUC (mixed)
RNA 1: CACCCGUGCAAAAAUGCAGGGGUCUAAAACUGAGCGGAUAACCUCUCUAUGG
RNA 2: GGGAAUGGAUCCACAUCUACGAAUUCGAGCCAUAGAGAGGUUAUCCGCUCAAUCAGAUCGGAAGAGCACACGU
B19: target 1 MT 5'PFS GUC 3'PFS CCA (mixed)
RNA 1: CACCCGUGCAAAAAUGCAGGGGUCUAAAACUGAGCGGAUAACCUCUCUAUGG
RNA 2: GGGAAUGGAUCCACAUCUACGAAUUCGUCCCAUAGAGAGGUUAUCCGCUCACCAAGAUCGGAAGAGCACACGU
B20: target 1 MT 5'PFS GUC 3'PFS CCC (mixed)
RNA 1: CACCCGUGCAAAAAUGCAGGGGUCUAAAACUGAGCGGAUAACCUCUCUAUGG
RNA 2: GGGAAUGGAUCCACAUCUACGAAUUCGUCCCAUAGAGAGGUUAUCCGCUCACCCAGAUCGGAAGAGCACACGU
B21: target 1 MT 5'PFS GUC 3'PFS CCU (mixed)
RNA 1: CACCCGUGCAAAAAUGCAGGGGUCUAAAACUGAGCGGAUAACCUCUCUAUGG
RNA 2: GGGAAUGGAUCCACAUCUACGAAUUCGUCCCAUAGAGAGGUUAUCCGCUCACCUAGAUCGGAAGAGCACACGU
B22: target 1 MT 5'PFS CCA 3'PFS AGU (mixed)
RNA 1: CACCCGUGCAAAAAUGCAGGGGUCUAAAACUGAGCGGAUAACCUCUCUAUGG
RNA 2: GGGAAUGGAUCCACAUCUACGAAUUCCCACCAUAGAGAGGUUAUCCGCUCAAGUAGAUCGGAAGAGCACACGU
B23: target 1 MT 5'PFS GCG 3'PFS AGA (mixed)
RNA 1: CACCCGUGCAAAAAUGCAGGGGUCUAAAACUGAGCGGAUAACCUCUCUAUGG
RNA 2: GGGAAUGGAUCCACAUCUACGAAUUCGCGCCAUAGAGAGGUUAUCCGCUCAAGAAGAUCGGAAGAGCACACGU
B24: target 1 MT 5'PFS GCG 3'PFS AGG (mixed)
RNA 1: CACCCGUGCAAAAAUGCAGGGGUCUAAAACUGAGCGGAUAACCUCUCUAUGG
RNA 2: GGGAAUGGAUCCACAUCUACGAAUUCGCGCCAUAGAGAGGUUAUCCGCUCAAGGAGAUCGGAAGAGCACACGU
B25: target 1 MT 5'PFS UUU 3'PFS AUC (mixed)
RNA 1: CACCCGUGCAAAAAUGCAGGGGUCUAAAACUGAGCGGAUAACCUCUCUAUGG
RNA 2: GGGAAUGGAUCCACAUCUACGAAUUCUUUCCAUAGAGAGGUUAUCCGCUCAAUCAGAUCGGAAGAGCACACGU
B26: target 1 MT 5'PFS GGC 3'PFS AUC (mixed)
RNA 1: CACCCGUGCAAAAAUGCAGGGGUCUAAAACUGAGCGGAUAACCUCUCUAUGG
RNA 2: GGGAAUGGAUCCACAUCUACGAAUUCGGCCCAUAGAGAGGUUAUCCGCUCAAUCAGAUCGGAAGAGCACACGU
B27: target 1 C4G,G15A (mixed)
RNA 1: CACCCGUGCAAAAAUGCAGGGGUCUAAAACUGAGCGGAUAACCUCUCUAUGG
RNA 2: GGGAAUGGAUCCACAUCUACGAAUUCGUACCAUAGAAAGGUUAUCCGGUCACCGAGAUCGGAAGAGCACACGU

The target in the data set is T1, EsCas13d, nuclease-dead. The experiment in a line: crRNA (strand 1, pre-loaded); Mg2+; 40 mM Tris-HCl pH 7.5, 150 mM NaCl, 6 mM MgCl2, 1 mM DTT, 0.1% Tween-20, 0.2 mg/ml BSA; 25 C; 10 min per concentration, then washed. The conditions noted are these: tags: His6-TwinStrep-SUMO cleaved; N-terminal SNAP kept (SNAP-Surface 488); label: 3' end held by stalled T7 RNA polymerase.
Take B1: the Kd is about 17 nM. The value for B2 was about 14 nM. For B3, the Kd is about 60 nM. On to B4, for which the Kd turned out to be 16.6 ± 2.05 nM. The value for B5 was 29.5 ± 7 nM; that for B6 was 110 ± 19.5 nM.

Regarding B7, the Kd was 34 ± 8.5 nM.

B8: the affinity, expressed as Kd, was 14.8 ± 2.55 nM. Then B9, with 14.9 ± 1.15 nM. Regarding B10, the Kd was found to be 9.4 ± 0.45 nM.

Turning to B11, binding was characterised by a dissociation constant (Kd) of 37 ± 11 nM.

Take B12: the Kd is about 14 nM. The value for B13 was about 29.5 nM.

For the molecule B14, binding was put at a Kd of 36 ± 10 nM. The value for B15 was 23.3 ± 3.4 nM. The value for B16 was 27.1 ± 2.4 nM. B17 yielded a Kd of 36 ± 11 nM. Then B18, with about 60 nM; and B19, with about 18 nM; and B20, with 19 ± 9 nM. B21 returned a Kd of 15.3 ± 2.6 nM.

Molecule B22 registered a Kd of 14 ± 5.9 nM. For the molecule B23, binding was put at a Kd of 26.4 ± 4.8 nM. Then B24, with 100 ± 50 nM. Turning to B25, the affinity, expressed as Kd, was 55 ± 18 nM. Then B26, with 42.5 ± 8.5 nM; and B27, with 13.2 ± 1.2 nM.
